B1: S. cerevisiae Abp1 (full length; SH3 domain 535-592 mutated) / Hua2 (parent complex)
chain 1: MALEPIDYTTHSREIDAEYLKIVRGSDPDTTWLIISPNAKKEYEPESTGSSFHDFLQLFDETKVQYGLARVSPPGSDVEKIIIIGWCPDSAPLKTRASFAANFAAVANNLFKGYHVQVTARDEDDLDENELLMKISNAAGARYSIQTSSKQQGKASTPPVKKSFTPSKSPAPVSKKEPVKTPSPAPAAKISSRVNDNNDDDDWNEPELKERDFDQAPLKPNQSSYKPIGKIDLQKVIAEEKAKEDPRLVQKPTAAGSKIDPSSDIANLKNESKLKRDSEFNSFLGTTKPPSMTESSLKNDDDKVIKGFRNEKSPAQLWAERKAKQNSGNAETKAEAPKPEVPEDEPEGEPDVKDLKSKFEGLAASEKEEEEMENKFAPPPKKSEPTIISPKPFSKPQEPVKAEEAEQPKTDYKKIGNPLPGMHIEADNEEEPEENDDDWDDDEDEAAQPPLPSRNVASGAPVQKEEPEQEEIAPSLPSRNSIPAPKQEEAPEQAPEEEIEEEAEEAAPQLPSRSSAAPPPPPRRATPEKKPKENPWATAEYDYDAAEDNELTFVENDKIINIEFVDDDWWLGELEKDGSKGLFPSNYVSLGN
chain 2: MQQTKFGKMYLDHDSVVEYSEDEIVEADRITLGYKKRLSMIENQMRHLLEDFSLDVQQIEPILADLQKYYDAFLQLLQKRNKSLQCKRSTHQPVPSPMNSQTSTNAKVNLSGKLMKFQLNSVQKFDEENILRILQNKIEFEHYFQIDKGKKQKVLLLAVYQCLNGPTRLHKVLNIEGIIHNNSIRTILGKQVSSSKWTVFLYDVKLVLLAHRQDVPNLETSKMIVRYGDLFPCALYFKDHTAY

Variants of: B1
Test: DHFR protein-fragment complementation in yeast (Abp1-DHFR F[1,2] x partner-DHFR F[3]), deep mutational scanning, second methotrexate selection vs reference; S. cerevisiae, DHFR-PCA selection in liquid with methotrexate at 30 C, two 72 h selections (the score uses the second); reference = the pre-selection culture

Row | Variant | screen value
1 | chain 1 S585H | -2.79 DMS score: mean over two replicates of log2(f_test/f_ref + 0.5)/ln 2, minus the synonymous-codon median (not a log2 …
2 | chain 1 Y587R | -2.81 DMS score: mean over two replicates of log2(f_test/f_ref + 0.5)/ln 2, minus the synonymous-codon median (not a log2 …
3 | chain 1 E575I | -0.328 DMS score: mean over two replicates of log2(f_test/f_ref + 0.5)/ln 2, minus the synonymous-codon median (not a log2 …
4 | chain 1 E555I | 0.585 DMS score: mean over two replicates of log2(f_test/f_ref + 0.5)/ln 2, minus the synonymous-codon median (not a log2 …
5 | chain 1 D548E | -0.357 DMS score: mean over two replicates of log2(f_test/f_ref + 0.5)/ln 2, minus the synonymous-codon median (not a log2 …
6 | chain 1 V565S | -0.833 DMS score: mean over two replicates of log2(f_test/f_ref + 0.5)/ln 2, minus the synonymous-codon median (not a log2 …
7 | chain 1 T538S | -0.596 DMS score: mean over two replicates of log2(f_test/f_ref + 0.5)/ln 2, minus the synonymous-codon median (not a log2 …
8 | chain 1 E547D | -0.281 DMS score: mean over two replicates of log2(f_test/f_ref + 0.5)/ln 2, minus the synonymous-codon median (not a log2 …
9 | chain 1 V554T | 0.502 DMS score: mean over two replicates of log2(f_test/f_ref + 0.5)/ln 2, minus the synonymous-codon median (not a log2 …
10 | chain 1 G591N | 0.941 DMS score: mean over two replicates of log2(f_test/f_ref + 0.5)/ln 2, minus the synonymous-codon median (not a log2 …
11 | chain 1 G591A | 0.673 DMS score: mean over two replicates of log2(f_test/f_ref + 0.5)/ln 2, minus the synonymous-codon median (not a log2 …
12 | chain 1 E563V | -0.477 DMS score: mean over two replicates of log2(f_test/f_ref + 0.5)/ln 2, minus the synonymous-codon median (not a log2 …
13 | chain 1 T538Q | -0.259 DMS score: mean over two replicates of log2(f_test/f_ref + 0.5)/ln 2, minus the synonymous-codon median (not a log2 …
14 | chain 1 A546N | -0.272 DMS score: mean over two replicates of log2(f_test/f_ref + 0.5)/ln 2, minus the synonymous-codon median (not a log2 …
15 | chain 1 W536C | -0.449 DMS score: mean over two replicates of log2(f_test/f_ref + 0.5)/ln 2, minus the synonymous-codon median (not a log2 …
16 | chain 1 E555H | -0.509 DMS score: mean over two replicates of log2(f_test/f_ref + 0.5)/ln 2, minus the synonymous-codon median (not a log2 …
17 | chain 1 P535A | 1.23 DMS score: mean over two replicates of log2(f_test/f_ref + 0.5)/ln 2, minus the synonymous-codon median (not a log2 …
18 | chain 1 N561K | -0.913 DMS score: mean over two replicates of log2(f_test/f_ref + 0.5)/ln 2, minus the synonymous-codon median (not a log2 …
19 | chain 1 L574K | 0.584 DMS score: mean over two replicates of log2(f_test/f_ref + 0.5)/ln 2, minus the synonymous-codon median (not a log2 …
20 | chain 1 S585V | -0.716 DMS score: mean over two replicates of log2(f_test/f_ref + 0.5)/ln 2, minus the synonymous-codon median (not a log2 …
21 | chain 1 A545R | -0.103 DMS score: mean over two replicates of log2(f_test/f_ref + 0.5)/ln 2, minus the synonymous-codon median (not a log2 …
22 | chain 1 V554S | 0.912 DMS score: mean over two replicates of log2(f_test/f_ref + 0.5)/ln 2, minus the synonymous-codon median (not a log2 …
23 | chain 1 P535I | 1.56 DMS score: mean over two replicates of log2(f_test/f_ref + 0.5)/ln 2, minus the synonymous-codon median (not a log2 …
24 | chain 1 P535T | 0.611 DMS score: mean over two replicates of log2(f_test/f_ref + 0.5)/ln 2, minus the synonymous-codon median (not a log2 …
25 | chain 1 A546S | 0.374 DMS score: mean over two replicates of log2(f_test/f_ref + 0.5)/ln 2, minus the synonymous-codon median (not a log2 …

Row | Variant | screen value
26 | chain 1 A546E | 0.502 DMS score: mean over two replicates of log2(f_test/f_ref + 0.5)/ln 2, minus the synonymous-codon median (not a log2 …
27 | chain 1 W536Q | -0.538 DMS score: mean over two replicates of log2(f_test/f_ref + 0.5)/ln 2, minus the synonymous-codon median (not a log2 …
28 | chain 1 K580M | -0.619 DMS score: mean over two replicates of log2(f_test/f_ref + 0.5)/ln 2, minus the synonymous-codon median (not a log2 …
29 | chain 1 S585K | -2.89 DMS score: mean over two replicates of log2(f_test/f_ref + 0.5)/ln 2, minus the synonymous-codon median (not a log2 …
30 | chain 1 E555R | 0.193 DMS score: mean over two replicates of log2(f_test/f_ref + 0.5)/ln 2, minus the synonymous-codon median (not a log2 …
31 | chain 1 A546I | 0.793 DMS score: mean over two replicates of log2(f_test/f_ref + 0.5)/ln 2, minus the synonymous-codon median (not a log2 …
32 | chain 1 K580A | -0.331 DMS score: mean over two replicates of log2(f_test/f_ref + 0.5)/ln 2, minus the synonymous-codon median (not a log2 …
33 | chain 1 L574V | -1.03 DMS score: mean over two replicates of log2(f_test/f_ref + 0.5)/ln 2, minus the synonymous-codon median (not a log2 …
34 | chain 1 K580V | 0.0627 DMS score: mean over two replicates of log2(f_test/f_ref + 0.5)/ln 2, minus the synonymous-codon median (not a log2 …
35 | chain 1 V554A | 0.779 DMS score: mean over two replicates of log2(f_test/f_ref + 0.5)/ln 2, minus the synonymous-codon median (not a log2 …
36 | chain 1 I560V | 0.522 DMS score: mean over two replicates of log2(f_test/f_ref + 0.5)/ln 2, minus the synonymous-codon median (not a log2 …
37 | chain 1 L574R | 0.641 DMS score: mean over two replicates of log2(f_test/f_ref + 0.5)/ln 2, minus the synonymous-codon median (not a log2 …
38 | chain 1 P535L | 0.129 DMS score: mean over two replicates of log2(f_test/f_ref + 0.5)/ln 2, minus the synonymous-codon median (not a log2 …
39 | chain 1 L582I | -1.44 DMS score: mean over two replicates of log2(f_test/f_ref + 0.5)/ln 2, minus the synonymous-codon median (not a log2 …
40 | chain 1 I559L | -0.0963 DMS score: mean over two replicates of log2(f_test/f_ref + 0.5)/ln 2, minus the synonymous-codon median (not a log2 …
41 | chain 1 N556S | 0.415 DMS score: mean over two replicates of log2(f_test/f_ref + 0.5)/ln 2, minus the synonymous-codon median (not a log2 …
42 | chain 1 D542C | 0.23 DMS score: mean over two replicates of log2(f_test/f_ref + 0.5)/ln 2, minus the synonymous-codon median (not a log2 …
43 | chain 1 A546T | 0.35 DMS score: mean over two replicates of log2(f_test/f_ref + 0.5)/ln 2, minus the synonymous-codon median (not a log2 …
44 | chain 1 V554W | -0.15 DMS score: mean over two replicates of log2(f_test/f_ref + 0.5)/ln 2, minus the synonymous-codon median (not a log2 …
45 | chain 1 A545C | -0.621 DMS score: mean over two replicates of log2(f_test/f_ref + 0.5)/ln 2, minus the synonymous-codon median (not a log2 …
46 | chain 1 T552R | -1.02 DMS score: mean over two replicates of log2(f_test/f_ref + 0.5)/ln 2, minus the synonymous-codon median (not a log2 …
47 | chain 1 D544E | -0.1 DMS score: mean over two replicates of log2(f_test/f_ref + 0.5)/ln 2, minus the synonymous-codon median (not a log2 …
48 | chain 1 N556K | -0.169 DMS score: mean over two replicates of log2(f_test/f_ref + 0.5)/ln 2, minus the synonymous-codon median (not a log2 …
49 | chain 1 N592H | -1.31 DMS score: mean over two replicates of log2(f_test/f_ref + 0.5)/ln 2, minus the synonymous-codon median (not a log2 …
50 | chain 1 D548S | 0.431 DMS score: mean over two replicates of log2(f_test/f_ref + 0.5)/ln 2, minus the synonymous-codon median (not a log2 …

Row | Variant | screen value
51 | chain 1 G591R | -0.62 DMS score: mean over two replicates of log2(f_test/f_ref + 0.5)/ln 2, minus the synonymous-codon median (not a log2 …
52 | chain 1 L582R | -1.77 DMS score: mean over two replicates of log2(f_test/f_ref + 0.5)/ln 2, minus the synonymous-codon median (not a log2 …
53 | chain 1 G591E | 1.01 DMS score: mean over two replicates of log2(f_test/f_ref + 0.5)/ln 2, minus the synonymous-codon median (not a log2 …
54 | chain 1 E540A | -0.942 DMS score: mean over two replicates of log2(f_test/f_ref + 0.5)/ln 2, minus the synonymous-codon median (not a log2 …
55 | chain 1 V565K | -2.9 DMS score: mean over two replicates of log2(f_test/f_ref + 0.5)/ln 2, minus the synonymous-codon median (not a log2 …
56 | chain 1 V565M | -1.83 DMS score: mean over two replicates of log2(f_test/f_ref + 0.5)/ln 2, minus the synonymous-codon median (not a log2 …
57 | chain 1 G591P | 0.961 DMS score: mean over two replicates of log2(f_test/f_ref + 0.5)/ln 2, minus the synonymous-codon median (not a log2 …
58 | chain 1 A545S | 0.0984 DMS score: mean over two replicates of log2(f_test/f_ref + 0.5)/ln 2, minus the synonymous-codon median (not a log2 …
59 | chain 1 P535K | -0.44 DMS score: mean over two replicates of log2(f_test/f_ref + 0.5)/ln 2, minus the synonymous-codon median (not a log2 …
60 | chain 1 S585A | 1.11 DMS score: mean over two replicates of log2(f_test/f_ref + 0.5)/ln 2, minus the synonymous-codon median (not a log2 …
61 | chain 1 A546D | 0.862 DMS score: mean over two replicates of log2(f_test/f_ref + 0.5)/ln 2, minus the synonymous-codon median (not a log2 …
62 | chain 1 E563I | -1.57 DMS score: mean over two replicates of log2(f_test/f_ref + 0.5)/ln 2, minus the synonymous-codon median (not a log2 …
63 | chain 1 E547N | -1.94 DMS score: mean over two replicates of log2(f_test/f_ref + 0.5)/ln 2, minus the synonymous-codon median (not a log2 …
64 | chain 1 K580I | -0.165 DMS score: mean over two replicates of log2(f_test/f_ref + 0.5)/ln 2, minus the synonymous-codon median (not a log2 …
65 | chain 1 S585R | -1.55 DMS score: mean over two replicates of log2(f_test/f_ref + 0.5)/ln 2, minus the synonymous-codon median (not a log2 …
66 | chain 1 L571E | 1.04 DMS score: mean over two replicates of log2(f_test/f_ref + 0.5)/ln 2, minus the synonymous-codon median (not a log2 …
67 | chain 1 V565C | 0.907 DMS score: mean over two replicates of log2(f_test/f_ref + 0.5)/ln 2, minus the synonymous-codon median (not a log2 …
68 | chain 1 E555G | -0.256 DMS score: mean over two replicates of log2(f_test/f_ref + 0.5)/ln 2, minus the synonymous-codon median (not a log2 …
69 | chain 1 D568T | -2.96 DMS score: mean over two replicates of log2(f_test/f_ref + 0.5)/ln 2, minus the synonymous-codon median (not a log2 …
70 | chain 1 F553I | 0.88 DMS score: mean over two replicates of log2(f_test/f_ref + 0.5)/ln 2, minus the synonymous-codon median (not a log2 …
71 | chain 1 T538F | 0.0744 DMS score: mean over two replicates of log2(f_test/f_ref + 0.5)/ln 2, minus the synonymous-codon median (not a log2 …
72 | chain 1 K580C | -0.508 DMS score: mean over two replicates of log2(f_test/f_ref + 0.5)/ln 2, minus the synonymous-codon median (not a log2 …
73 | chain 1 E550Q | -2.17 DMS score: mean over two replicates of log2(f_test/f_ref + 0.5)/ln 2, minus the synonymous-codon median (not a log2 …
74 | chain 1 K576N | -0.58 DMS score: mean over two replicates of log2(f_test/f_ref + 0.5)/ln 2, minus the synonymous-codon median (not a log2 …
75 | chain 1 Y587F | -0.234 DMS score: mean over two replicates of log2(f_test/f_ref + 0.5)/ln 2, minus the synonymous-codon median (not a log2 …
